Measurements taken from article PMC2667941.
Read-outs that look alike come from different tables or passages of the source.

B1: ps-po-X on CdTe (same sequence as ps-po) (ssDNA)
DNA: TCCGCTGCAGAAAAATCGGGCGTAC
modifications: 9 phosphorothioate linkages, between the last 10 nt (T*C*G*G*G*C*G*T*A*C); rest phosphodiester
B2: ps-po-TBA on CdTe (structured_DNA)
DNA: GGTTGGTGTGGTTGGAAAAATCGGGCGTAC
modifications: 9 phosphorothioate linkages, between the last 10 nt (T*C*G*G*G*C*G*T*A*C); rest phosphodiester

Legend:
human alpha-thrombin [1] = biological target: T1, human alpha-thrombin (Homo sapiens, UniProt P00734;P00734 328-363;364-622); experiment: gel filtration chromatography
human alpha-thrombin [2] = biological target: T1, human alpha-thrombin; experiment: gel filtration chromatography; remark: listed apart in the source

Binder	binding result (human alpha-thrombin [1])	binding result (human alpha-thrombin [2])
B1	no binding	
B2		binds
